From patent publication US20230143294A1 (SYNBIO TECHNOLOGIES, published 2023) come the findings set out here.

Assay [1] concerns the target T1, human PD-L1 antigen (Beijing Sino Biological Inc, Catalog No. #10084-H08H-100) (human, UniProt Q9NZQ7 19-239).
T1 construct: Bought antigen; also called the antigen
In words: BLI (ForteBIO Octet), antibody captured on sensor, human PD-L1 in solution. On the technique in general: Biolayer interferometry detects binding as a change in optical thickness at a sensor tip.

The target in assay [2] is T1, human PD-L1 antigen (Beijing Sino …). Described as above. The source holds these as a separate data set.

Changes are numbered by the printed parent chain. Like-named read-outs stand apart in the source and are kept apart here.

T1 sequence (Q9NZQ7 19-239 limits assumed): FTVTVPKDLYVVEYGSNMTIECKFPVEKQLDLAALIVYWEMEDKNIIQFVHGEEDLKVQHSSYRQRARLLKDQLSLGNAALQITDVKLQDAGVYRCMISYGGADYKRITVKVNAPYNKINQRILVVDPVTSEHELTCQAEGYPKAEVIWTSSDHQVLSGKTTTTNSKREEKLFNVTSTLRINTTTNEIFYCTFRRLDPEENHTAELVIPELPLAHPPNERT

B1: Antibody II-HX-15 (antibody, human IgG4 S228P, kappa, V domains shown)
VH: VQLVQSGAEVKKPGASVKVSCKASGYTFTSYVMHWVRQAPGQGLEWMGYINPYNDGTKYNEKFKGRVTITSDKSASTAYMELSSLRSEDTAVYYCAWSGAIFEYWGQGTLVTVSS
VL: TQSPSFLSASVGDRVTITCSASSSVSYMHWFQQKPGKSPKLWIYSTSNLASGVPARFSGSGSGTSYSLTISSLQPEDFATYYCQQRSSYPYTFGQGTKLEIKR
notes: also called antibody II sample; candidate antibody II sample
The term Kd denotes the constant that tells how readily two partners part at equilibrium. Usually koff stands for a measure of how fast the partners let go of each other. In general, kon refers to a measure of how fast the partners come together. Low readings indicate slower complex formation, high ones faster complex formation. In assay [1], B1 registered a Kd of 0.149 nM, a koff of 5.6e-07 s⁻¹ and a kon of 3760 M⁻¹ s⁻¹.

B2: Antibody II-HX-11 (antibody, human IgG4 S228P, kappa, V domains shown)
VH: VQLVQSGAEVKKPGASVKVSCKASGYYTSSPVMHWVRQAPGQGLEWMGYINYFYDGTKYNEKFKGRVTITSDKSASTAYMELSSLRSEDTAVYYCAKSAIAFEYWGQGTLVTVSS
VL: B1 VL with S24T, S26Y, Q85Y, P90W
With B2, in assay [1], the Kd was 2.8 nM, the koff worked out at 7.71e-06 s⁻¹ and the kon is 2750 M⁻¹ s⁻¹.

B3: Antibody II-HX-17 (antibody, human IgG4 S228P, kappa, V domains shown)
VH: VQLVQSGAEVKKPGASVKVSCKASGYFFSSFVMHWVRQAPGQGLEWMGYINHFQDATKYNEKFKGRVTITSDKSASTAYMELSSLRSEDTAVYYCARSVGITDYWGQGTLVTVSS
VL: B1 VL with S24T, S26Y, T46Y, P90H
With B3, in assay [1], binding was put at a Kd of 1.82 nM, the koff was determined as 4.92e-06 s⁻¹ and the kon worked out at 2710 M⁻¹ s⁻¹.

B4: Antibody II-HX-14 (antibody, human IgG4 S228P, kappa, V domains shown)
VH: B3 VH with H52Y, F53Y, Q54N, V99A, G100A, I101L, T102S, D103E
VL: B1 VL with S24T, V25I, S26T, S45Y, Q85N, S87T, Y89F, P90H
In assay [1], B4 had a Kd of 3.19 nM, a koff of 9.55e-06 s⁻¹ and a kon of 2990 M⁻¹ s⁻¹.

B5: Antibody II-HX-16 (antibody, human IgG4 S228P, kappa, V domains shown)
VH: B1 VH with T27F, F28Y, Y53F, N54Q, G56I, G99A, I101L, F102S
VL: B1 VL with Q85N, S87Y
In assay [1], B5 registered an equilibrium dissociation constant (Kd) of 3.71 nM, a koff of 9.19e-06 s⁻¹ and a kon of 2500 M⁻¹ s⁻¹.

B6: Antibody II-HX-19 (antibody, human IgG4 S228P, kappa, V domains shown)
VH: B1 VH with T27Y, F28T, P52H, Y53F, N54Q, G56A
VL: B1 VL with V25G, S26Y, S45T
In assay [1], B6 showed a Kd of 1.23 nM, a koff of 3.75e-06 s⁻¹ and a kon of 3040 M⁻¹ s⁻¹.

B7: Antibody II-HX-18 (antibody, human IgG4 S228P, kappa, V domains shown)
VH: B1 VH with T27Y, F28T, T29S, Y31P, W97K, A100G, F102S, E103D
VL: B1 VL with V25A, T46Y, Q85Y, S87T
In assay [1], B7 came in with a Kd of 0.624 nM, a koff of 1.92e-06 s⁻¹ and a kon of 3080 M⁻¹ s⁻¹.

B8: Antibody II-HX-10 (antibody, human IgG4 S228P, kappa, V domains shown)
VH: B1 VH with T27S, F28T, T29S, Y31F, P52Y, G56A
VL: B1 VL with T46Y, Q85N, S87T, Y89F, P90H
For B8, in assay [1], the Kd was found to be 3.67 nM, the koff came out at 9.2e-06 s⁻¹ and the kon worked out at 2510 M⁻¹ s⁻¹.

B9: Antibody II-HX-13 (antibody, human IgG4 S228P, kappa, V domains shown)
VH: B1 VH with T27S, W97R, G99I, A100G, F102T, E103D
VL: B1 VL with V25I, Y89F
In assay [1], B9 registered a Kd of 0.707 nM, a koff of 2.13e-06 s⁻¹ and an association rate constant (kon) of 3010 M⁻¹ s⁻¹.

B10: Antibody I-HX-2 (antibody, human IgG4 S228P, kappa, V domains shown)
VH: VQLVQSGAEVKKPGASVKVSCKASGYSFTSYWMHWVRQAPGQGLEWMGAIYPGNSDTSYNQKFKGRVTITAVTSASTAYMELSSLRSEDTAVYYCTRWGDGYYHAMDHWGQGTLVTVSS
VL: DIQMTQSPSSLSASVGDRVTITCRASQDIGNTLNWLQQKPGKAIKRLIYATSSLDSGVPKRFSGSRSGSDYSLTISSLQPEDFATYYCLQYASSPFTFGQGTKLEIKR
notes: also called antibody I sample; candidate antibody I sample
In assay [2], B10 showed a Kd of 0.0291 nM, a koff of 2.7e-07 s⁻¹ and a kon of 9280 M⁻¹ s⁻¹.

B11: Antibody I-HX-5 (antibody, human IgG4 S228P, kappa, V domains shown)
VH: VQLVQSGAEVKKPGASVKVSCKASGYTFTSYWMHWVRQAPGQGLEWMGAIYWAHSETSYNQKFKGRVTITAVTSASTAYMELSSLRSEDTAVYYCTHWLEVYFHGMDHWGQGTLVTVSS
VL: B10 VL with D28N, I29G, G30I, A50V, Q90Y, S94Y, P95F
On to B11, for which, in assay [2], the Kd is 0.459 nM, the koff turned out to be 3.27e-06 s⁻¹ and the kon amounted to 7120 M⁻¹ s⁻¹.

B12: Antibody I-HX-8 (antibody, human IgG4 S228P, kappa, V domains shown)
VH: B11 VH with T27S, S30T, W52P, A53V, L99I, V101A, Y102F, G105L, D107Q
VL: B10 VL with D28N, N31Q, A50S
In assay [2], B12 displayed a Kd of 0.259 nM, a koff of 1.81e-06 s⁻¹ and a kon of 6990 M⁻¹ s⁻¹.

B13: Antibody I-HX-4 (antibody, human IgG4 S228P, kappa, V domains shown)
VH: B11 VH with F28Y, T29N, S30F, W52H, A53V, H54Q, E56D
VL: B10 VL with D28E, N31Q, A50V, Q90Y, Y91F
Turning to B13, in assay [2], binding was put at a Kd of 0.11 nM, the koff came out at 8.95e-07 s⁻¹ and the kon was 8100 M⁻¹ s⁻¹.

B14: Antibody I-HX-3 (antibody, human IgG4 S228P, kappa, V domains shown)
VH: B11 VH with F28Y, T29Y, S30F, W52H, A53G, H54N, L99A, E100D, V101A, D107N
VL: B10 VL with D28N, G30A, A50V, T51S, Q90Y, S94Y, P95F
In assay [2], B14 came in with a Kd of 0.271 nM, a koff of 1.92e-06 s⁻¹ and an on-rate constant (kon) of 7080 M⁻¹ s⁻¹.

B15: Antibody I-HX-6 (antibody, human IgG4 S228P, kappa, V domains shown)
VH: B10 VH with T29S, N54Q, D56E, R97H, G99I, Y103F, A105V
VL: B10 VL with D28E, N31Q, A50G, Q90N, A92I
For B15, in assay [2], binding was put at a Kd of 0.0481 nM, the koff was determined as 4.29e-07 s⁻¹ and the kon stood at 8930 M⁻¹ s⁻¹.

B16: Antibody I-HX-7 (antibody, human IgG4 S228P, kappa, V domains shown)
VH: B10 VH with S30T, P52W, G53A, N54H, D56E
VL: B10 VL with D28E, N31Q, Q90Y, S94T
With B16, in assay [2], the Kd was found to be 0.047 nM, the koff is 4.27e-07 s⁻¹ and the kon is 9090 M⁻¹ s⁻¹.

B17: Antibody I-HX-1 (antibody, human IgG4 S228P, kappa, V domains shown)
VH: B10 VH with F28Y, T29Y, S30F, P52H, G53I, D100E, D107N
VL: B10 VL with I29L, T51S, Q90Y, S94T
notes: expressed in HEK 293 or CHO cells
In assay [2], B17 returned a Kd of 0.046 nM, a koff of 4.1e-07 s⁻¹ and a kon of 8920 M⁻¹ s⁻¹.
